Columns and labels:
[1] = biological target: Lyspro (B28Lys, B29Pro insulin) (UniProt P01308); assay: self-association by size exclusion chromatography, Superdex 75, PBS pH 7.4, 80 umol/l protein
[2] = Determination of self-association property by size exclusion chromatography (Superdex 75); assay type: physicochemical
Method: The molecular homogeneity was measured by Symmetry factor Fs. Fs=W0.05h/2A, wherein, W0.05 is the band width at 0.05 peak height and A is the width of the first half peak at 0.05 peak height. The change of average molecular weight was measured by plotting the distribution coefficient Kav vs. protein concentration. Kav=(Vr−V0)/(Vc−Vo), wherein Vr is the retention volume, Vo the void volume and Vc the total bed volume.

Lyspro (B28Lys, B29Pro insulin) (from UniProt P01308 25-110; P01308 25-110)
Kav [1]: 0.48

zinc free insulin: zinc free porcine insulin used as control in size exclusion chromatography
retention time on Superdex 75 column versus protein concentration ([2]; PBS pH7.4, 40-600 μmol/L): decreased with increasing concentration
Kav value versus protein concentration ([2]; PBS pH7.4, increasing concentration): decreased with increasing concentration
Fs value (symmetry factor, peak shape) versus protein concentration ([2]; PBS pH7.4, insulin: at concentrations above 400 umol/L): increased markedly

Reference: patent US20050171008A1, “Monomeric insulin” (priority 2002, published 2005)
